{"source": "paper PMC3428728", "tested_on": "hSWI/SNF complex (FLAG-tagged) (Homo sapiens (HeLa))", "test": "competition", "settings": "scale: fold preference over macroH2A nucleosome"}
{"substance": "20/60 H2A nucleosome", "values": [{"measurement": "binding signal", "value": 9}]}
